Measurements as given in paper doi:10.1101/2023.12.21.572878.
Values joined by “and” are separate entries in the source; they are usually repeats but may differ in a detail not shown here. Identical values can stand only once.

Assays:
[1] = target: Dimeric kinesin K401-BIO-H6 (Drosophila | E. coli) (UniProt P17210); assay: mass photometry
Streptavidin = Streptavidin (UniProt P22629); assay: mass photometry

stoichiometry N [1]: 2
stoichiometry N (kinesin dimers per streptavidin tetramer) (Streptavidin): 1 and 2 and 3
Substance: Dimeric kinesin K401-BIO-H6 (from UniProt P17210 1-401)
